Measured values: paper PMC6239180

Columns and labels:
[1] = molecular target: hPcf11 (CF II subunit);hClp1 (CF II subunit or alone) (human;human) (UniProt O94913+Q92989); assay: filter binding
[2] = molecular target: T1, hClp1 (CF II subunit or alone) (human) (UniProt Q92989); assay: filter binding
T1 sequence: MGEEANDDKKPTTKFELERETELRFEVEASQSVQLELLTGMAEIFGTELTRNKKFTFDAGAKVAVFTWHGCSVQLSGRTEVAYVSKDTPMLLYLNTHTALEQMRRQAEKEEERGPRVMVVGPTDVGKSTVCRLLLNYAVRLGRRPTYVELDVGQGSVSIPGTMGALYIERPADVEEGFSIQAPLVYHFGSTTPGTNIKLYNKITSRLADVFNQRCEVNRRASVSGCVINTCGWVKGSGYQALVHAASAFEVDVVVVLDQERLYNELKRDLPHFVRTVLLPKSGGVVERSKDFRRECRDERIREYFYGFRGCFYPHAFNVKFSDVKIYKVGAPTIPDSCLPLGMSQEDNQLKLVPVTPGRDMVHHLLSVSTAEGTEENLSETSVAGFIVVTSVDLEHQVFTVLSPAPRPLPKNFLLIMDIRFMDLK

hPcf11 (CF II subunit);hClp1 (CF II subunit or alone) (human;human), sequence (O94913 whole entry, one chain of several): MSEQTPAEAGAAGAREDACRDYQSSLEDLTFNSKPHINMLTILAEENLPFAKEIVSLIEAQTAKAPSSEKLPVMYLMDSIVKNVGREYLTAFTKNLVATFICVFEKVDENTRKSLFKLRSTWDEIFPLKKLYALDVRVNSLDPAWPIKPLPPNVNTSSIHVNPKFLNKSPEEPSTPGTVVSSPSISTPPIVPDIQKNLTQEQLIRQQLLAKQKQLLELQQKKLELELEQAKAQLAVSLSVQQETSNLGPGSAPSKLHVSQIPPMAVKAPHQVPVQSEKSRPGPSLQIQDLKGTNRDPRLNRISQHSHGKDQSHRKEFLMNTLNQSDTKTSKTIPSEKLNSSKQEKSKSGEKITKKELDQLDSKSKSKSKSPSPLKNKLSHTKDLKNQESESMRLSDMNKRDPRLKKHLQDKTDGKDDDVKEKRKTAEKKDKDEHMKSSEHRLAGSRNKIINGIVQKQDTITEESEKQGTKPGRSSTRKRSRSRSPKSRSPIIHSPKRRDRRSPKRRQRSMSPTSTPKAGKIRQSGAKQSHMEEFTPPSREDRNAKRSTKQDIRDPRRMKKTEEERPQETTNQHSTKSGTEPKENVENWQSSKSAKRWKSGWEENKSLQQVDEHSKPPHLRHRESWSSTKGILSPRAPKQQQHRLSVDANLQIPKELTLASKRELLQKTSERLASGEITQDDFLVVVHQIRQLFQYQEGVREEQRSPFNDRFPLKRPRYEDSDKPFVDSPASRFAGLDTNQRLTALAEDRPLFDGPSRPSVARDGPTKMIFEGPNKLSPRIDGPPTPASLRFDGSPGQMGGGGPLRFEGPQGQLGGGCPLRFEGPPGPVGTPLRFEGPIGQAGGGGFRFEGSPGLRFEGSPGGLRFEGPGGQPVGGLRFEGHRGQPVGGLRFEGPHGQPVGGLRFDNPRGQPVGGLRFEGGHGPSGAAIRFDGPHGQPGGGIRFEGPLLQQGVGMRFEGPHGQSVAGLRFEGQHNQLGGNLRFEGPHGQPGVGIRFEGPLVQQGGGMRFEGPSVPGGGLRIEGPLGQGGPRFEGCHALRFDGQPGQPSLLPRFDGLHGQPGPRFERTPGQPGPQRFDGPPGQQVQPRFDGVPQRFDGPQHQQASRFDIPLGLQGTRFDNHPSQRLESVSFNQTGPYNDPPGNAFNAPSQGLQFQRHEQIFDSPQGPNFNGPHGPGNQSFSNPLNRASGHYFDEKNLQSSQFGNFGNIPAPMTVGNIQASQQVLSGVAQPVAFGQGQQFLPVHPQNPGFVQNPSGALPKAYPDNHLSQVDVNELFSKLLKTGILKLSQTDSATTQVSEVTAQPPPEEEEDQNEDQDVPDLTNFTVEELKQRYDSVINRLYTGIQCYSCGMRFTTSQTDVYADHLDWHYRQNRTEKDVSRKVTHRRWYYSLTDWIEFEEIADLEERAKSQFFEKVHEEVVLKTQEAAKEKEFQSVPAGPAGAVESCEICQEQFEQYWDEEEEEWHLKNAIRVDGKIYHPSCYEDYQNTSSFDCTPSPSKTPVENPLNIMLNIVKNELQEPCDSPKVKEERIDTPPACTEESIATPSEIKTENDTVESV

Substance	K half [1] [nM]	K half [2] [nM]
L3 RNA	0.9	–
SV40 late RNA	0.4	140
